Data reported in US20050223436A1, “EPSP synthase highly tolerant to glyphosate” (priority 2003, published 2005).

How the values were obtained:
E. coli JM109 = experiment: Glyphosate tolerance of E. coli JM109 transformants on MOPS media plates; assay type: cell-based; details: bacteria transformed with DNA encoding the enzyme (summary of Example 1)
Text: A SuperCos1 Cosmid Vector kit (Stratagene Co., Ltd) was used to construct a community genomic DNA cosmid library. The community genomic DNA was digested with restriction endonuclease Sau3AI at 0.006 unit/microgram purified DNA. DNA fragments of about 40 kb were collected using the freeze-thaw method, and then ligated with SuperCos1/BamH1 vector. A cosmid genomic DNA library was constructed according to the manual of Stratagene Co., Ltd. For screening of glyphosate tolerant clones, JM109 E. coli was used as the acceptor bacterium for the genomic library construct, as glyphosate is only effective on an inhibitory medium such as M9 and MOPS. The ligated DNA was packaged into lambda phage particles (Stratagene, Gigapack Gold) according to the manufacturer's protocol. E. coli strain JM109 was infected with the packaged product. The transformants were selected on tetracycline LB media. Positive clones were then plated on LB media containing tetracycline and tetracycline+kanamycin, respectively. Clones growing on both media were considered as negative recombinants resulting from vector ligated with vector DNA. The number of positive transformants was calculated as the total number of colonies minus background false negative colonies. This number was used to determine the titer of the genomic library, which was 4×10^6 pfu/ml, meeting the requirement for library construction (>10^6 pfu/ml). […]

tobacco = experiment: Glyphosate tolerance of transgenic tobacco; assay type: in vivo; details: transgenic plants, greenhouse assays
Experimental: (4) Transformation of tobacco was carried out according to the leaf disc transformation protocol, using sterilized tissue of a healthy leaf of about 2 weeks old. The main vein was removed and the leaf was cut into small pieces of 2 cm^2.
(8) After development of the roots, plants were taken out. The attached solid culture media was washed off with sterile water. The plants were initially kept in a high humidity environment such as a plastic container with a glass cover for a few days. After the plants had grown stronger, the glass covers were removed, and the plants were transferred to solid culture media containing 10 mM glyphosate for screening of glyphosate tolerant plants.
(10) Glyphosate tolerance assays in greenhouse also confirmed that the transgenic plants could grow well in media containing 15 mM glyphosate.

B1: EPSP synthase: novel 444 amino acid EPSP synthase highly tolerant to glyphosate, encoded by SEQ ID NO:1/3 (protein, listed as Unknown bacterium)
chain: MACLPDDSGPHVGHSTPPRLDQEPCTLSSQKTVTVTPPNFPLTGKVAPPGSKSITNRALLLAALAKGTSRLSGALKSDDTRHMSVALRQMGVTIDEPDDTTFVVTSQGSLQLPAQPLFLGNAGTAMRFLTAAVATVQGTVVLDGDEYMQKRPIGPLLATLGQNGIQVDSPTGCPPVTVHGMGKVQAKRFEIDGGLSSQYVSALLMLAACGEAPIEVALTGKDIGARGYVDLTLDCMRAFGAQVDAVDDTTWRVAPTGYTAHDYLIEPDASAATYLWAAEVLTGGRIDIGVAAQDFTQPDAKAQAVIAQFPNMQATVVGSQMQDAIPTLAVLAAFNNTPVRFTELANLRVKECDRVQALHDGLNEIRPGLATIEGDDLLVASDPALAGTACTALIDTHADHRIAMCFALAGLKVSGIRIQDPDCVAKTYPDYWKAWPSLGVHLND
Q: With B1 as the molecule, how does the “glyphosate concentration of media in which transformed bacteria grew” value (E. coli JM109) read?
A: The value was 10 to 150 mM.

Q: And the “glyphosate concentration in which transgenic tobacco grew” value (tobacco)?
A: The value was 15 mM.
